# Measured values published in publication PMC9973356, “Cryo-EM Structures of AcrD Illuminate a Mechanism for Capturing Aminoglycosides from Its Central Cavity” (mBio, 2023).
# Values joined by “and” are separate entries in the source; they are usually repeats but may differ in a detail not shown here. Equal values may be shown once.
# B1: Escherichia coli acriflavine resistance protein D (AcrD) (natural protein)
# chain: MANFFIDRPIFAWVLAILLCLTGTLAIFSLPVEQYPDLAPPNVRVTANYPGASAQTLENTVTQVIEQNMTGLDNLMYMSSQSSGTGQASVTLSFKAGTDPDEAVQQVQNQLQSAMRKLPQAVQNQGVTVRKTGDTNILTIAFVSTDGSMDKQDIADYVASNIQDPLSRVNGVGDIDAYGSQYSMRIWLDPAKLNSFQMTAKDVTDAIESQNAQIAVGQLGGTPSVDKQALNATINAQSLLQTPEQFRDITLRVNQDGSEVRLGDVATVEMGAEKYDYLSRFNGKPASGLGVKLASGANEMATAELVLNRLDELAQYFPHGLEYKVAYETTSFVKASIEDVVKTLLEAIALVFLVMYLFLQNFRATLIPTIAVPVVLMGTFSVLYAFGYSVNTLTMFAMVLAIGLLVDDAIVVVENVERIMSEEGLTPREATRKSMGQIQGALVGIAMVLSAVFVPMAFFGGTTGAIYRQFSITIVAAMVLSVLVAMILTPALCATLLKPLKKGEHHGQKGFFAWFNQMFNRNAERYEKGVAKILHRSLRWIVIYVLLLGGMVFLFLRLPTSFLPLEDRGMFTTSVQLPSGSTQQQTLKVVEQIEKYYFTHEKDNIMSVFATVGSGPGGNGQNVARMFIRLKDWSERDSKTGTSFAIIERATKAFNQIKEARVIASSPPAISGLGSSAGFDMELQDHAGAGHDALMAARNQLLALAAENPELTRVRHNGLDDSPQLQIDIDQRKAQALGVAIDDINDTLQTAWGSSYVNDFMDRGRVKKVYVQAAAPYRMLPDDINLWYVRNKDGGMVPFSAFATSRWETGSPRLERYNGYSAVEIVGEAAPGVSTGTAMDIMESLVKQLPNGFGLEWTAMSYQERLSGAQAPALYAISLLVVFLCLAALYESWSVPFSVMLVVPLGVIGALLATWMRGLENDVYFQVGLLTVIGLSAKNAILIVEFANEMNQKGHDLFEATLHACRQRLRPILMTSLAFIFGVLPMATSTGAGSGGQHAVGTGVMGGMISATILAIYFVPLFFVLVRRRFPLKPRPE
# notes: AcrD, E. coli, full length; Seen as trimers, dimers and monomers in the same nanodisc sample; The nanodisc scaffold protein MSP1E3D1 (Sigma-Aldrich) is only a tool; also called AcrD aminoglycoside efflux pump; apo-AcrD
# Molecular target: the molecule itself
# Experiment: cryo-EM structure; single-particle cryo-EM of 10 µM AcrD in MSP1E3D1 nanodiscs (E. coli total extract lipid; 20 mM Tris-HCl pH 7.5, 100 mM NaCl), no gentamicin; particle ratio of trimer to dimer to monomer approximately 3:5:2
protein,measurement,value
B1,stoichiometry N,3 and 2
